Reference: US20260132182A1 (published 2026)
Starred links: 1 amine or outer side, 2 acyl side, 3 side chain; linkers in the order of their positions; H or OH if unused. Non-standard residues stand in square brackets, D forms with d. Groups on a side chain read outwards from the residue. *: point of attachment. Butyryl(4-SO2NHCO(CH2)16Tz) = O=C(CCCCCCCCCCCCCCCCc1nnn[nH]1)NS(=O)(=O)CCCC(=O)*; Decanoyl(10-(4-HOOC-PhO)) = O=C(O)c1ccc(OCCCCCCCCCC(=O)*)cc1; C20 diacid = O=C(O)CCCCCCCCCCCCCCCCCCC(=O)*; C18 diacid = O=C(O)CCCCCCCCCCCCCCCCC(=O)*; C16 diacid = O=C(O)CCCCCCCCCCCCCCC(=O)*; γGlu = O=C(O)[C@H](CCC(=O)[*:2])N[*:1]; εLys = N[C@@H](CCCCN[*:1])C(=O)[*:2]; Trx = NC[C@H]1CC[C@H](C(=O)O)CC1; AEEA = NCCOCCOCC(=O)O; Aib = CC(C)(N)C(=O)O

T1: human amylin-3 (a) receptor (human, UniProt P30988 25-474; O60896 24-148)
T1 sequence (looked up) 1: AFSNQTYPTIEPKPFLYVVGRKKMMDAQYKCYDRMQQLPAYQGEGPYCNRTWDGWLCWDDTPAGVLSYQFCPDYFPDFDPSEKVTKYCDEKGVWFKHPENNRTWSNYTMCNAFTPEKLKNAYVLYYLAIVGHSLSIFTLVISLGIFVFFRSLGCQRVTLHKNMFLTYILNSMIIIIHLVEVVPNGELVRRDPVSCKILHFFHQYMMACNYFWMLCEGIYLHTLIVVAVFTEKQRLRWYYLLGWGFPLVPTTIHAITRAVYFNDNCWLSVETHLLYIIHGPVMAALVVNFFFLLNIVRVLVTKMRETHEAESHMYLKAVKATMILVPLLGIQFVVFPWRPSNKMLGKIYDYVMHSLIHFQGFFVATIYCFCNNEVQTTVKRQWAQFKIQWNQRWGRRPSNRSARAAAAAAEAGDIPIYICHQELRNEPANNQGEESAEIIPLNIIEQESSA
T1 sequence (looked up) 2: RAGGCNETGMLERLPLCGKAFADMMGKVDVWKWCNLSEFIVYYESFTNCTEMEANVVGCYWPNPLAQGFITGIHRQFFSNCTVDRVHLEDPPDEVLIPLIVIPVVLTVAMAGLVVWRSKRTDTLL

B1: Compound 0090 (peptide)
peptide: HGEGTFTSDVSSYLEEQAARK([AEEA-AEEA-γGlu-C18 diacid])FIEWLVRGK([AEEA-AEEA-γGlu-C18 diacid])GEGGEASELSTAALGRLSAELHELATLPRTETGSGSP-NH2
B2: Compound 0103 (peptide)
peptide: H[Aib]EGTFTSDVSSYLEEQAAREFIAWLVRGRK(Butyryl(4-SO2NHCO(CH2)16Tz))EASELSTAALGRLSAELHELATLPRTETGSGSP-NH2
B3: Compound 0105 (peptide)
peptide: H[Aib]EGTFTSDVSSYLEEQAARK([AEEA-AEEA-γGlu-C16 diacid])FIEWLVRGK([AEEA-AEEA-γGlu-C16 diacid])GEGQEPGGASELSTAALGRLSAELHELATLPRTETGSGSP-NH2
B4: Compound 0110 (peptide)
peptide: H[Aib]EGTFTSDVSSYLEEQAARK([εLys-AEEA-AEEA-γGlu-C18 diacid])FIAWLVRGK([εLys-AEEA-AEEA-γGlu-C18 diacid])GGGGGGGGGEASELSTAALGRLSAELHELATLPRTETGSGSP-NH2
B5: Compound 0098 (peptide)
peptide: HGEGTFTSDVSSYLEEQAARKFIEWLVRGKGEGGGGGGGGGEASELSTAALGRLSAELHELATLPRTETGSGSP
modifications: Lys21 and Lys30 each (10-(4-carboxyphenoxy)decanoyl-gGlu-Ado-Ado); C-terminal amide
B6: Compound 0101 (peptide)
peptide: HWEGTFTSDVSSYLEEQAARKFIEWLVRGKGEGGGGGGGGGEASELSTAALGRLSAELHELATLPRTETGSGSP
modifications: Lys21 and Lys30 each (10-(4-carboxyphenoxy)decanoyl-gGlu-Ado-Ado); C-terminal amide
B7: Compound 0010 (peptide)
peptide: H[Aib]EGTFTSDVSSYLEGQAAREFIAWLVRGRGEGEGEK([AEEA-AEEA-γGlu-C18 diacid])EASELSTAALGRLSAELHELATLPRTETGSGSP-NH2
B8: Compound 0087 (peptide)
peptide: HGEGTFTSDVSSYLEEQAARK([AEEA-AEEA-γGlu-C16 diacid])FIEWLVRGK([AEEA-AEEA-γGlu-C16 diacid])GEGGEASELSTAALGRLSAELHELATLPRTETGSGSP-NH2
B9: Compound 0092 (peptide)
peptide: H[Aib]EGTFTSDVSSYLEGQAAK([AEEA-AEEA-γGlu-C18 diacid])EFIAWLVRGRGGGGGGGGGGGGGEASELSTAALGRLSAELHELATLPRTETGSGSP-NH2
B10: Compound 0085 (peptide)
peptide: H[Aib]EGTFTSDVSSYLEGQAAREFIAWLVRGRGQEPGQAPK([AEEA-AEEA-γGlu-C18 diacid])EASELSTAALGRLSAELHELATLPRTETGSGSP-NH2
B11: Compound 0086 (peptide)
peptide: H[Aib]EGTFTSDVSSYLEEQAARK([AEEA-AEEA-γGlu-C16 diacid])FIEWLVRGK([AEEA-AEEA-γGlu-C16 diacid])GEGGEASELSTAALGRLSAELHELATLPRTETGSGSP-NH2
B12: Compound 0100 (peptide)
peptide: HWEGTFTSDVSSYLEEQAARK([AEEA-AEEA-γGlu-Decanoyl(10-(4-HOOC-PhO))])FIEWLVRGK([AEEA-AEEA-γGlu-Decanoyl(10-(4-HOOC-PhO))])GEGGGGGEASELSTAALGRLSAELHELATLPRTETGSGSP-NH2
B13: Compound 0093 (peptide)
peptide: H[Aib]EGTFTSDVSSYLEGQAAK([AEEA-AEEA-γGlu-C18 diacid])EFIAWLVRGRGGGGGGGGGGGGGGGGGEASELSTAALGRLSAELHELATLPRTETGSGSP-NH2
B14: Compound 0019 (peptide)
peptide: H[Aib]EGTFTSDVSSYLEGQAAK([AEEA-AEEA-γGlu-C18 diacid])EFIAWLVRGRGGQEPGQEPEASELSTAALGRLSAELHELATLPRTETGSGSP-NH2
B15: Compound 0097 (peptide)
peptide: HGEGTFTSDVSSYLEEQAARK([AEEA-AEEA-γGlu-Decanoyl(10-(4-HOOC-PhO))])FIEWLVRGK([AEEA-AEEA-γGlu-Decanoyl(10-(4-HOOC-PhO))])GEGGGGGEASELSTAALGRLSAELHELATLPRTETGSGSP-NH2
B16: Compound 0109 (peptide)
peptide: H[Aib]EGTFTSDVSSYLEEQAARK([AEEA-AEEA-γGlu-C18 diacid])FIAWLVRGK([AEEA-AEEA-γGlu-C18 diacid])GGGGGGGGGEASELSTAALGRLSAELHELATLPRTETGSGSP-NH2
B17: Compound 0089 (peptide)
peptide: H[Aib]EGTFTSDVSSYLEEQAARK([AEEA-AEEA-γGlu-C18 diacid])FIEWLVRGK([AEEA-AEEA-γGlu-C18 diacid])GEGGEASELSTAALGRLSAELHELATLPRTETGSGSP-NH2
B18: Compound 0094 (peptide)
peptide: H[Aib]EGTFTSDVSSYLEGQAAK([AEEA-AEEA-γGlu-C20 diacid])EFIAWLVRGRGGGGGGGGGEASELSTAALGRLSAELHELATLPRTETGSGSP-NH2
B19: Compound 0099 (peptide)
peptide: HWEGTFTSDVSSYLEEQAARK([AEEA-AEEA-γGlu-Decanoyl(10-(4-HOOC-PhO))])FIEWLVRGK([AEEA-AEEA-γGlu-Decanoyl(10-(4-HOOC-PhO))])GEGEASELSTAALGRLSAELHELATLPRTETGSGSP-NH2
B20: Compound 0102 (peptide)
peptide: H[Aib]EGTFTSDVSSYLEEQAAREFIAWLVRGRK(Butyryl(4-SO2NHCO(CH2)16Tz))ELSTAALGRLSAELHELATLPRTETGSGSP-NH2
B21: Compound 0095 (peptide)
peptide: H[Aib]EGTFTSDVSSYLEGQAAK([AEEA-AEEA-γGlu-Trx-C20 diacid])EFIAWLVRGRGGGGGGGGGEASELSTAALGRLSAELHELATLPRTETGSGSP-NH2

Legend:
human GLP-1 receptor = human GLP-1 receptor (human, UniProt P43220 24-463); assay: cell-based or functional assay
[1] = target: T1, human amylin-3 (a) receptor; assay: cell-based or functional assay

Binder | Human GLP-1R potency [EC50 (pM)] (human GLP-1 receptor) | Human AmyR3 potency [EC50 (pM)] [1]
B1 | 32.6 pM | 70.9 pM
B2 | 28.1 pM | 11.6 pM
B3 | 1.1 pM | 30.8 pM
B4 | 2.7 pM | 40.7 pM
B5 | 7.9 pM | 15.6 pM
B6 | 7.1 pM | 10.2 pM
B7 | 5.4 pM | 37 pM
B8 | 23.8 pM | 97.9 pM
B9 | 18.5 pM | 10.9 pM
B10 | 2.2 pM | 55.8 pM
B11 | 3.9 pM | 78.3 pM
B12 | 6.8 pM | 30.4 pM
B13 | 7.5 pM | 8.6 pM
B14 | 13.7 pM | 26.5 pM
B15 | 10 pM | 93.1 pM
B16 | 3.2 pM | 19.1 pM
B17 | 5.7 pM | 65.5 pM
B18 | 7.5 pM | 11.3 pM
B19 | 9.6 pM | 44.9 pM
B20 | 14.7 pM | 9.8 pM
B21 | 7.4 pM | 6.6 pM
